Measured values reported in patent US20220403031A1 (WUXI BIOLOGICS IRELAND, published 2022).

How the values were obtained:
CD147.his = test: non-specific binding ELISA; antigen coated at 2 ug/mL, antibody at 10 ug/ml
Description: (§1) Non-specific binding ELISA was performed in 96-well high binding plates (Nunc-Immuno Plate, Thermo Scientific). The plate was coated with various antigens (as listed in the left column of Table 11) at 2 μg/mL overnight at 4° C. After blocking with 2% BSA-PBS, 10 μg/ml antibodies were added to the plate and incubated for 2 hours. […] The HRP signal was detected by adding TMB peroxidase substrate and the reaction was stopped after 12 minutes using 2M HCl. The absorbance at 450 nm was read using a microplate reader (Molecular Device). All incubation steps were performed at room temperature. The plate was washed with PBST (0.05% Tween20-PBS) between steps.

VEGF.his = test: as above
Chain of VEGF.his (P15692 whole entry): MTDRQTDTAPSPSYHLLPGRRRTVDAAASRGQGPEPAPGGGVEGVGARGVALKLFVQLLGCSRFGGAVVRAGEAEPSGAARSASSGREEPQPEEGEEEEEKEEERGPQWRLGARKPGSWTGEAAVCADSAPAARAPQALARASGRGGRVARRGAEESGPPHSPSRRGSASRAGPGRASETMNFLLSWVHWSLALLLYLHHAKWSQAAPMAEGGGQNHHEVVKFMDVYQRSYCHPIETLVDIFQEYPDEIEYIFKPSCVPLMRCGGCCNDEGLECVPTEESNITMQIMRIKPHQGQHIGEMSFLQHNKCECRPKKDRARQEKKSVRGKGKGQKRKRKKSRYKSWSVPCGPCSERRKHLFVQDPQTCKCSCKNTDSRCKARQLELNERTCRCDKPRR
Description: as §1

CD3.his = test: as above
Description: as §1

W317-hPro1.his = target: T1, W317-hPro1.his; test: as above
T1 construct: identity unknown
Description: as §1

Factor VIII = test: as above
Description: as §1

CD22.his = test: as above
Description: as §1

human serum Albumin = human serum Albumin (human, UniProt P02768 25-609); test: as above
Description: as §1

CTLA4.his = test: as above
Chain of CTLA4.his (P16410 36-161): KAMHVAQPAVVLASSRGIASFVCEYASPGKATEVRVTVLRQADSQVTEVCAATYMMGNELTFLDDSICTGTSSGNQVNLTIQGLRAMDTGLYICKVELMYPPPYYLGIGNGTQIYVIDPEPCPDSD
Description: as §1

CD40 = test: as above
Chain of CD40 (P25942 21-193): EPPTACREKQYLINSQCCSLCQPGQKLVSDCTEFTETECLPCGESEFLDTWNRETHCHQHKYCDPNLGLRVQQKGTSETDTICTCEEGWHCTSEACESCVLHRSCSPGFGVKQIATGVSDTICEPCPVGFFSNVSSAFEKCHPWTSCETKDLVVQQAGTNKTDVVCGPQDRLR
Description: as §1

FGFR.his = test: as above
Description: as §1

[1] = target: T2, his-tagged cynomolgus PD-L1 (Sino Biological-90251-C08H), cynoPro1.ECD.His (cynomolgus, UniProt G7PSE7 19-238); test: SPR (ProteOn), antibody captured by anti-human IgG Fc, antigen as analyte, 1:1 model
T2 construct: extracellular domain; His tag; also called cynoPro1.ECD.His (cyno PD-L1 ECD)
T2 sequence (G7PSE7 entry or part of it C08H C08H): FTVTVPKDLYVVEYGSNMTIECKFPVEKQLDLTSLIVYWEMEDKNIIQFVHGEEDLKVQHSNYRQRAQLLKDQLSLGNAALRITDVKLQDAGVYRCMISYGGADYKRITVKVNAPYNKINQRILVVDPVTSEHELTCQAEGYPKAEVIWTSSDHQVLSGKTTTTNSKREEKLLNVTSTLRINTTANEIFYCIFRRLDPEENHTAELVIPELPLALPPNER
Description: (§2) Antibodies binding affinities to his-tagged human PD-L1 (R&D-9049-B7), his-tagged cynomolgus PD-L1 (Sino Biological-90251-C08H) and his-tagged mouse PD-L1 (Sino Biological-50010-M08H) were detected by surface plasmon resonance (SPR) assay using the software ProteOn. Testing antibody was captured on anti-human IgG Fc antibody immobilized GLM chip (Bio-rad). The chip was rotated 90° and washed with running buffer until the baseline is stable. hPro1.ECD.His, cynoPro1.ECD.His and mPro1-ECD-His at different concentrations was injected over the sensor chip at a flow rate of 100 uL/min for an association phase of 120 s, followed by 240-800 s dissociation. The chip was regenerated by 10 mM glycine (pH 1.5) following every dissociation phase.
(§3) The sensorgrams for reference channel L1 and buffer channel A6 were subtracted from the test sensorgrams. The experimental data were fitted by 1:1 binding model. Molecular weight of 40 kDa was used to calculate the molar concentration of analyte hPro1.ECD.His (R&D), cynoPro1.ECD.His and mPro1-ECD-His.

[2] = target: T3, his-tagged mouse PD-L1 (Sino Biological-50010-M08H), mPro1-ECD-His (mouse, UniProt Q9EP73 19-239); test: as above
T3 construct: extracellular domain; His tag; also called mPro1-ECD-His (mouse PD-L1 ECD)
T3 sequence (Q9EP73 19-239, stated change not applied): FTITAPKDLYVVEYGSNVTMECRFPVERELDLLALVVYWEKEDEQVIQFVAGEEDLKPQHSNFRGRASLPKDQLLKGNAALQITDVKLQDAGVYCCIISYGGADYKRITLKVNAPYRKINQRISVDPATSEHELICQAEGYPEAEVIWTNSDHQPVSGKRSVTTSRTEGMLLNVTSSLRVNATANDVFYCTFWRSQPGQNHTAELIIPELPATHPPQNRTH
Description: as §2, §3

[3] = target: T4, his-tagged human PD-L1 (R&D-9049-B7), hPro1.ECD.His (human, UniProt Q9NZQ7 19-238); test: as above
T4 construct: extracellular domain; His tag; also called hPro1.ECD.His (human PD-L1 ECD); human PD-L1 ECD protein (R&D-9049-B7)
T4 sequence (Q9NZQ7 19-238): as the sequence (G7PSE7 entry or part of it C08H C08H) above, with T33A, S34A, N62S, Q68R, R82Q, L173F, A185T, I192T, L215H counted along it
Description: as §2, §3

B1: AP3R2-1A3-z12-hIgG4 (Fc fusion)
chain: EVQLVESGGGLVQPGGSLRLSCAASGHFSNLAVNWFRQAPGKERELVAGILWSGGSTFYADSVKGRFTISRGNAENMLYLQMNSLRAEDTAVYYCNTGTNWGQGTLVTVSS
notes: VHH-Fc (hIgG4) fusion of the humanized VHH; also called W3156-AP3R2-1A3-z12-hIgG4; W3156 antibody; not shown: Fc of human IgG4
Absorbance at 450 nm (CD147.his): 0.07 | Absorbance at 450 nm (VEGF.his): 0.09 | Absorbance at 450 nm (CD3.his): 0.07 | Absorbance at 450 nm (W317-hPro1.his): 0.06 | Absorbance at 450 nm (Factor VIII): 0.06 | Absorbance at 450 nm (CD22.his): 0.06 | Absorbance at 450 nm (human serum Albumin): 0.42 | Absorbance at 450 nm (CTLA4.his): 0.08 | Absorbance at 450 nm (CD40): 0.25 | Absorbance at 450 nm (FGFR.his): 0.14 | Kd [1]: 0.251 nM | koff [1]: 0.000478 s⁻¹ | kon [1]: 1.91e+06 M⁻¹ s⁻¹ | Kd [2]: 19.4 nM | koff [2]: 0.0114 s⁻¹ | kon [2]: 589000 M⁻¹ s⁻¹ | Kd [3]: 0.208 nM | koff [3]: 0.000385 s⁻¹ | kon [3]: 1.85e+06 M⁻¹ s⁻¹
